Laboratory results: the DeepSol protein solubility set

Test: soluble on expression in E. coli; label from the status in PepcDB or PDB records

Row | Sequence | soluble on expression in E. coli
1 | MMSASSPYPIGTPGQPWQASERQAWREQRHIQREYQQEVVPKILALNSLFDVSTYGALSYDPTRYPLYVVKSRHWNANKPTVLITGGVHGYETSGVHGALQFLATAAEPYLAHFNLLAAPCVSPWGYETINRWNPNAIDPNRSFVQDSPAEEAALLMAMVAEHGPILLHIDLHETTDTDESEFRPALAARDGKAYLEGSIPDGFYTVGDTENPQLAFQQAVIDSVRRVTHIAPADENHEIIGSPVVAEGVILYPMRELGLCGGMTDCTYSTTTEVYPDSPKVTAQLCNDAQVAAIIGALDYVLANEQSLLGE | not soluble
2 | MMSTPALRPYLPEDAAVTAAIFVASIEQLTADDYSEEQQEAWASAADDEAKFAARLSGQLTLIATLQGVPVGFASLKGPDHIDMLYVHPDYVGRDVGTTLIDALEKLAGARGALILTVDASDNAAEFFAKRGYVAKQRNTVSINGEWLANTTMTKSLADSAAPGASS | soluble
3 | MMSTSIPDVAVHDSPAIAAPLRWVGMDGIVVPVQLTTADGGQHVIGRARAQIDLPAMGVKGIHMSRLYRLLDTYAVEPLTPVGICGLLSAMVNSHADCASTAARVDWYFDWLRRVPALVSNDLSGWRGYPVWLRAEYSAGHVQFWLCVEVAYSSTCPCSAALARQMLADAFLQEHVEVSALSPETVADWLRSNGSYATPHSQRSLARIEVALTEQAVELGLPALVDCAERILSTPVQAAVRRVDEQAFARLNGANLMYVEDATRRLQHGLAIHYSAFRVHVRHLESLHPNDAVASTADE | not soluble
4 | MMTQGPNLIGIHTNTKENEETQKFVNWFLNTSLTWDNNESKTPAQYFTESASYILPLKETFTGSNNKGQSGKNDGKNSNNTFKAKALELFKEQSENKIVGYSDPSDFRGGKFRESIGSAFNATVNSHVDFNTFVANFRANLGSGYDK | soluble
5 | MMTRESIDKRAGRRGPNLNIVLTCPECKVYPPKIVERFSEGDVVCALCGLVLSDKLVDTRSEWRTFSNDDHNGDDPSRVGEASNPLLDGNNLSTRIGKGETTDMRFTKELNKAQGKNVMDKKDNEVQAAFAKITMLCDAAELPKIVKDCAKEAYKLCHDEKTLKGKSMESIMAASILIGCRRAEVARTFKEIQSLIHVKTKEFGKTLNIMKNILRGKSEDGFLKIDTDNMSGAQNLTYIPRFCSHLGLPMQVTTSAEYTAKKCKEIKEIAGKSPITIAVVSIYLNILLFQIPITAAKVGQTLQVTEGTIKSGYKILYEHRDKLVDPQLIANGVVSLDNLPGVEKK | soluble
6 | MMVPPRPGFAPLSLESINDRMEMHLFLTSACILYHIYIRDNLLIYQEIWTKYWRGRLAESALKNEISALYLRLPFPRPPTLQSIAEQEVICKDAAPIYVYCSREAMLSHVQSKDLCQFGRANLLACTLAPYRTGVTIEMVRCLFKRLRDGNRVEAGTGEEDLSHFVAFLPTTAFRRGPRFYLGGENVQFFLREGGLELPCHIIAFGRALFSEILADGSSWDWKSVGESSRLNHVRASVELSRNVPTAETTDNWAEAALGTDAVYPVRPPNLTPTQDHPCKPLLSGNRVPNERHRPWKRFFKKLRSVSKHFYFNRLEHHHHHH | soluble
7 | MMVRILTRLGQVREAEEKYRRELVDFRMGEVYGNLRAIIADEDVEVRAGEAKPVKIKEVSIPANHIVFMCAYATNPLGHPIAAGEETPLPISMDRKADHATFVAAADGKISRNDLLGVLIILPVELTH | not soluble
8 | MNADKFVETTISDFMRLNSSRDFEYFVSIAKQLYSRGCRDYYTEAFLTHLKTIFPITEENAEKWLKYGEMLGTVGEKDFRTDIFEQMMKDFVDSNKLSQIAAKFHGFVESVDDWNLLAECLFSRVRALEHKINLTASAPMATDPSESSC | not soluble
9 | MNAFDRARQSAIAAAREARGTYRNGLVTPTAGVAPGMTQANLIALPRDWAYDFLLYAQRNPKACPILDVSDAGSPTTLLAEGSDLRTDIPMYRIWRDGKLAEEVSDATQAWAEHDDMVAFLIGCSFTFETPLQEAGIEVRHITDGCNVPMYRTNRACRPAGRLHGEMVVSMRPIPADRVAEASAISGRYPSVHGAPVHIGEPGRLGINDLSRPDFGDAVSIKPGEVPVFWACGVTPQAAVMASGVPFAITHSPGYMFITDVPDSTYHVLEHHHHHH | soluble
10 | MNALVAHNSEAWDKKVETGNEWTVAVEQQVIEQAKKGNWDIRVTPMKDVPKDWFPPIKGLKVLCLASGGGQQGPVLAAAGADVTVLDNSEKQLNQDRMIAERDGLTIHTVKGSMDDLSVFNDESFDVIVHPVANVFVENVLPVWKEAYRVLKRNGILISGFVNPVVFLFDTVLEQQGVLKVKHSIPYADPEDLPKHKVKELIENNEALEFGHSLEDQIKGQIDAGFIVTGFYEDKGGFVLDQYIHTYSATRSVKVLEHHHHHH | soluble
11 | MNANCSSTAAVICEKKLHRPYSKHCPKHWVYNKETQACYRTISKTNMTILEADNKCFDYGFEHRQDAMLTSIESESENQFVMNLAKEKDANFEFIYLGGYGRSRNGNKWHWMDGSEFNYMNWDRGMPFGRRALAVLVMNKRGKWINHYADKILSQYNAVAVCKFKS | not soluble
12 | MNANLNMDVIRSALLAGEVDDAYKVIFNARKKLELYKSTTGDSRYDPYYEFISILDDVVRGRRSWKDLKAYIDGNMDALSKFIDPDFLRSFPYYLFFSIDRYNVRFPYFDGKRCDDR | not soluble
13 | MNARSTRFTQDEVLDLIIVGGGINGAGIAADATGRGLKVGLYDAKDFASATSSASSKLVHGGLRYLEHYEFRLVSEALAEREVLLKKAPHIVTPMRFRLPHRPFLRPAWMIRAGLFLYDNLGKRTSLPASHKVNLKAGSVTKPEMQIGFEYSDCWVDDARLVILNAMQAQEQGAEVLNYCTVEKAERMGDLWHVTLLDEQTQQRFERRSHALVNAAGPWVKQFLNENAHVSSPYGIRLIQGSHIIVPRIHDEPQAYILQNEDKRIVFVIPYLDDYSMIGTTDVEYKGDPRKVAITDAERDYLISIVNKHFMREIARSDIIAEFSGVRPLCDDESNSPQAITRDYTLSLDQQADEAPLLSIFGGKLTTYRKLGEAAMKHLAPFFPKMKAPWTADAPLPGGENFDYAALKNQLVAAFPFITESVIERWLRSYGSRTTQLLAGVTGIEDLGIAFSGELYQREIDYLCEKEFARHAQDIFWRRSKLGLNHDTSVVEEVESYLQQKFHAEQPLKATVLEHHHHHH | soluble
14 | MNASAPIPLNETQRLLRIQELCVLEDTSDEVFDEIVAMTAEFFQTPIALVSIVDEHRQWFRARVGLSARETPRNVSFCAYTILSDTLFEIPDATLDERFMNNSLVTGHPDIRYYAGAPLITDDGLALGSLCVIDTKPREPMSEHQTQMLKRFASLVMKRIVSLRL | not soluble
15 | MNCYNKFAHIYDKLIRADVDYKKWSDFIIEKCVENNLVFDDYLDLACGTGNLTENLCPKFKNTWAVDLSQEMLSEAENKFRSQGLKPRLACQDISNLNINRKFDLITCCLDSTNYIIDSDDLKKYFKAVSNHLKEGGVFIFDINSYYKLSQVLGNNDFNYDDDEVFYYWENQFEDDLVSMYISFFVRDGEFYKRFDEEHEERAYKEEDIEKYLKHGQLNILDKVDCYSNKKVEKFTERITYLVKLGGKSNGR | soluble
16 | MNDAVEVELEPVTYHYFNAGAAGKDLNTNETYIGKMLEEKTGVNFKVEHLVGDINQRTGVMIASGDYPDVIVPDAAIDALLDAGAFIPLNDLLEEHGPNLLEAYGDYLHMFTHDDGNIYYIPFGATVNEFQPNPNIDQGAFWIQRGILKEYGFPEINTLDEYLDIITRYAKENPEIDGMRTIPFTGLTYDWRFFAFTNVPNHLAGYPNDGGVMVDMDTHEASVYADSEYAKRWLKALNELNAEGLLDQEMFVMNYDEYLEKLSSGRVLGFFDYGWQFGTASNALRDAGNPDREYMALPVVFDEGIKDQYIDPPAFTGNRGVGITVNAENPERIIQFWDELIKEDNQRLVMWGIEGEHYNVDENGRFYQTEEQIEIVNNQNFRDEFGMTTFEWSWPRINGTFSDGNAVEARRQPEVAFASYNDDDKEYLEAYGISTFAELFSEPDERPWYPAWSANIEQGSPQQIFEERADEILRRHYARIVLADPADFDKEWDDFVQAYRSLDVDAYENFFTEVVQARVRGEWLEHHHHHH | soluble
17 | MNDFLNFTQQKREEPQQLVLIKYPGIVKNVDKALQTMGGLQLISQSHFNNHSLELSHTPDNPYTSRIMAERKPQDNVSSGTLHLVMKVRRKKIDPTKIKTSFLGLVNTVYTFDVMCDFQYLPLKKRVGCDTFEDLIPKLIPTDIASALSWWDASESVATPLFLPPYQFSRYLTPSTKILGRETDHTEKTKNAQKKGYGQNLRVERKALSVTVNAKEEFPLEPSQEAVDEAMFRCKHDEPHRLLRELFDERPMWTRMGLLYRTRIDDSLLRSILQKYAFYILSGPWGRLWCKFGYDPRTDRNGGLYQTIMVSFRQHGSIPERQRLKVSSDRAQTINHTADVSEPVTYMYEPGKLPRIRQMWYCVMDVRLPQAMNELVAVVENNTPPTPEEVRDKGWLPNTLLEKIRDLIKEDVARTSAELEGLMNDTAPGEEEF | not soluble
18 | MNDHIHRVPALTEEEIDSVAIKTFERYALPSSSSVKRKGKGVTILWFRNDLRVLDNDALYKAWSSSDTILPVYCLDPRLFHTTHFFNFPKTGALRGGFLMECLVDLRKNLMKRGLNLLIRSGKPEEILPSLAKDFGARTVFAHKETCSEEVDVERLVNQGLKRVGNSTKLELIWGSTMYHKDDLPFDVFDLPDVYTQFRKSVEAKCSIRSSTRIPLSLGPTPSVDDWGDVPTLEKLGVEPQEVTRGMRFVGGESAGVGRVFEYFWKKDLLKVYKETRNGMLGPDYSTKFSPWLAFGCISPRFIYEEVQRYEKERVANNSTYWVLFELIWRDYFRFLSIKCGNSLFHLGGPRNVQGKWSQDQKLFESWRDAKTGYPLIDANMKELSTTGFMSNRGRQIVCSFLVRDMGLDWRMGAEWFETCLLDYDPCSNYGNWTYGAGVGNDPREDRYFSIPKQAQNYDPEGEYVAFWLQQLRRLPKEKRHWPGRLMYMDTVVPLKHGNGPMAGGSKSGGGFRGSHSGRRSRHNGP | soluble
19 | MNDTSFENCIKCTVCTTACPVSRVNPGYPGPKQAGPDGERLRLKDGALYDEALKYCINCKRCEVACPSDVKIGDIIQRARAKYDTTRPSLRNFVLSHTDLMGSVSTPFAPIVNTATSLKPVRQLLDAALKIDHRRTLPKYSFGTFRRWYRSIAAQQAQYKDQVAFFHGCFVNYNHPQLGKDLIKVLNAMGTGVQLLSKEKCCGVPLIANGFTDKARKQAITNVESIREAVGVKGIPVIATSSTCTFALRDEYPEVLNVDNKGLRDHIELATRWLWRKLDEGKTLPLKPLPLKVVYHTPCHMEKMGWTLYTLELLRNIPGLELTVLDSQCCGIAGTYGFKKENYPTSQAIGAPLFRQIEESGADLVVTDCETCKWQIEMSTSLRCEHPITLLAQALA | not soluble
20 | MNELVFLHSQYIEEEPYTTDEVIAKYSQIKRESVSKLIKKYQKDLEEFGKVGFEIRAMESGQKAKFYQLNEEQATLLITYLDNTEPVRRFKKALVRQFYDMKNGLYARRMERQKEKSVRKSMTDVIKELGLSPHYYKHYTDLVYKTALGFNAKQLREAREVSKKSTILDFLTSEEIEAVNKREQQVATLLTLKMDYDTIKSILNGQGVLYQTTLKMPVATN | not soluble
21 | MNFIIEPGSLADIDELERLYDELNDHLSATINYPGWIKGIYPVRENAAAGVDDNSLFVARCDGRIAGSVILDHQPEKAYENIVWKIDADYSYIFVVRTFVVHPSFLQMGVGHALMDFSLELALKSEMKSIRLDVYEKNLPAISLYEKCGFEYIDTVDLGLGHYGLDWFKLYEKVI | not soluble
22 | MNGDDTFARRPTVGAQIPEKIQKAFDDIAKYFSKEEWEKMKVSEKIVYVYMKRKYEAMTKLGFKAILPSFMRNKRVTDFQGNDFDNDPNRGNQVQRPQMTFGRLQGIFPKIMPKKPAEEGNVSKEVPEASGPQNDGKQLCPPGKPTTSEKINMISGVLQRYCRFGSRPLQ | soluble
23 | MNGELYLKKGLLQLNKKLYDEALATLNKVIELDDDLASLTSAKCILGEYYFIHQNYEKSKEFLSWICDRQDELEEEFDDLLSEEINTASVLMELIEKYKL | not soluble
